Experiment [1] concerns the target Frizzled-10 (microscale thermophoresis) (UniProt Q9ULW2). Kind of experiment: MST.
Experiment [2] has as its target Frizzled-7 (microscale thermophoresis) (UniProt O75084). The experiment in a line: MST.

Human OLFM4 protein, sequence (Q6UX06 21-510): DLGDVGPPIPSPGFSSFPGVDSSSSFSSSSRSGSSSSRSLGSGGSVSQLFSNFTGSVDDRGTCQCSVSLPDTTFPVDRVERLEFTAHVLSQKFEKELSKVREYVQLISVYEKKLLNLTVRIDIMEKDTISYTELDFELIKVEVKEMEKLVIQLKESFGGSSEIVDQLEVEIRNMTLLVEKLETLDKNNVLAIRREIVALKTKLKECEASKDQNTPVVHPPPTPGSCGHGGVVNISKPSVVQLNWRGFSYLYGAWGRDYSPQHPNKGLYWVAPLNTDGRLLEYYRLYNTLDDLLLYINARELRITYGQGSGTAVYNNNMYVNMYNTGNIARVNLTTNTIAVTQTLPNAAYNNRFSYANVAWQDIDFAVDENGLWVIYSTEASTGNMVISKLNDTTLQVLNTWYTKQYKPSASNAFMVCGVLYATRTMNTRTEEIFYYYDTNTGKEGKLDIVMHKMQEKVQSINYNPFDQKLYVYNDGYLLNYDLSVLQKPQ
Frizzled-10 (microscale thermophoresis), sequence (Q9ULW2 21-581): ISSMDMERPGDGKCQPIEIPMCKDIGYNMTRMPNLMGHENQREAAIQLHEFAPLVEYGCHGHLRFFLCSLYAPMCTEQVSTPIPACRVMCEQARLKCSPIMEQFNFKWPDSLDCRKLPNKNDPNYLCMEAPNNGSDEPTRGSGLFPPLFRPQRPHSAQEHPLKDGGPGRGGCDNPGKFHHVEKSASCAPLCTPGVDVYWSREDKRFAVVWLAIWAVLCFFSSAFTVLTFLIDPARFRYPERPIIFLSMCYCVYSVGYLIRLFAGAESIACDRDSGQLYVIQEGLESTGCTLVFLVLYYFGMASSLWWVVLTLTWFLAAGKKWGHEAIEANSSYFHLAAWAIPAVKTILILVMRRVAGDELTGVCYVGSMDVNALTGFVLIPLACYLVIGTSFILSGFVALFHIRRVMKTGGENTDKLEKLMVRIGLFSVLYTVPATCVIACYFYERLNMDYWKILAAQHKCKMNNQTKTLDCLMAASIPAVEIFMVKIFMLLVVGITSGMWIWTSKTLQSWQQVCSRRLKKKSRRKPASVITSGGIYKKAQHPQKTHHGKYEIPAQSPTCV

Consider “Human OLFM4 protein (from UniProt Q6UX06 21-510) (natural protein)”, for which the values for the Kd in experiment [1] and in experiment [2] were 10 µM and 2.5 µM, respectively.

Source of the values: paper PMC5057043.
